This note sets out measurements from publication PMC10986557, “Inhibition of SARS-CoV-2 replication by a ssDNA aptamer targeting the nucleocapsid protein”.

For the data set, the target named is Nucleocapsid (N) protein (SARS-CoV-2 original strain, UniProt P0DTC9 1-419). The data set can be described thus: flow cytometry (bead-immobilized protein); 1x SB. The following applies: protein: recombinant; tags: His6 (pET28a); chain copies: 2. Background: In flow cytometry, cells or beads pass a laser one at a time.

B1: N-Apt17 (ssDNA)
DNA: GCTGGATGTTCATGCTGGCAAAAGGTGTCACTCCATTCCTTAGGGGCACCGGAAGCATCTCTTTACTTTGACACATCCAGC
As for B1, the binding result is “binds”.
